# Test results taken from paper PMC9076165 (RSC Advances, 2019).
# Like-named read-outs stand apart in the source and are kept apart here. Where a SMILES comes first, the peptide text is derived from it.
# T1: 3h34P1 heptapeptide (L) (synthetic (Ph.D.-7 phage display))
# T1 chain: KNHDWGV
# T2: RsmC (rRNA small subunit methyltransferase C) (Escherichia coli (ASKA collection), UniProt P39406 1-343)
# T2 sequence: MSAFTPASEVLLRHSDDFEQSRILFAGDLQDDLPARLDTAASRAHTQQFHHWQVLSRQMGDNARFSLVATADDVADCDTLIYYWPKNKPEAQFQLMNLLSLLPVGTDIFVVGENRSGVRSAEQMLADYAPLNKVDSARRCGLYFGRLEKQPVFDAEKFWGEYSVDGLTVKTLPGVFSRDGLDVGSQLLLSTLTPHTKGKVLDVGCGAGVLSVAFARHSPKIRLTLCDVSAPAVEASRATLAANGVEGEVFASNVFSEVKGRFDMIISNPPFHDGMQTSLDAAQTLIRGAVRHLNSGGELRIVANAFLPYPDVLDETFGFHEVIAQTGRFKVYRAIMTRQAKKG
# Tests used:
# [1] = Solubility of the peptide in assay buffer / stock solutions; type: physicochemical; settings: HK50 buffer (80 mM Hepes pH 7.6, 50 mM KCl), at concentrations equal to or higher than 10 μM
# 3h34P1 heptapeptide (L) [2] = biological target: T1, 3h34P1 heptapeptide (L); test: tryptophan fluorescence quenching
# 3h34P1 heptapeptide (L) [3] = biological target: T1, 3h34P1 heptapeptide (L); test: tryptophan fluorescence quenching
# 3h34P1 heptapeptide (L) [4] = biological target: T1, 3h34P1 heptapeptide (L); test: tryptophan fluorescence quenching
# 3h34P1 heptapeptide (L) [5] = biological target: T1, 3h34P1 heptapeptide (L); test: tryptophan fluorescence quenching
# [6] = biological target: T2, RsmC (rRNA small subunit …); test: FRET
molecule,measurement,setting,value
CC(C)[C@H](NC(=O)CNC(=O)[C@H](Cc1c[nH]c2ccccc12)NC(=O)[C@H](CC(=O)O)NC(=O)[C@H](Cc1c[nH]cn1)NC(=O)[C@H](CC(N)=O)NC(=O)[C@@H](N)CCCCN)C(=O)O [P1] (H-KNHDWGV-OH),Solubility in the buffer used for FRET titrations,[1],low solubility
GGUGCUGCAUGGCUGUCGG (ssRNA) [5h34],binding result,3h34P1 heptapeptide (L) [2],binds
CCGUCAAGUCAUCAUGGCCC (ssRNA) [3h34],Kd,3h34P1 heptapeptide (L) [3],18 ± 5 nM
GAGGCCUUCGGGCCUC (ssRNA) [Control RNA 2],binding result,3h34P1 heptapeptide (L) [4],no binding
GCCCUGAAAAGGGC (ssRNA) [Control RNA 1],binding result,3h34P1 heptapeptide (L) [5],no binding
CCGUCAAGUCAUCAUGGCCC (ssRNA) [3h34-Cy3],binding result,[6],binds
